Experimental data published in publication PMC6037669, “Optimization of a MT1-MMP-targeting Peptide and Its Application in Near-infrared Fluorescence Tumor Imaging” (Scientific Reports, 2018).

B1: MT1-AF7p-H4R (peptide)
peptide: HWKRLHNTKTFL
notes: MT1-AF7p with histidine 4 changed to arginine (rational design by docking); In the AFM experiments coupled covalently to the tip through an NHS-PEG18-aldehyde linker; also called optimized peptide; peptidomimetic; source: synthetic peptide, bought: GL Biochem Ltd. (Shanghai)
B2: MT1-AF7p (peptide)
peptide: HWKHLHNTKTFL
notes: In the AFM experiments coupled covalently to the tip through an NHS-PEG18-aldehyde linker; In the in vivo imaging Cy5.5 was conjugated to the N-terminus; also called original peptide; original ligand; source: synthetic peptide (solid-phase, Fmoc chemistry, HPLC purified)
B3: MT1-AF7p-H4K (peptide)
peptide: HWKKLHNTKTFL
notes: MT1-AF7p with histidine 4 changed to lysine (rational design by docking); In the AFM experiments coupled covalently to the tip through an NHS-PEG18-aldehyde linker; also called optimized peptide; peptidomimetic; source: synthetic peptide, bought: GL Biochem Ltd. (Shanghai)

Key:
Conditions in all cases: both partners purified
[1] = target: T1, recombinant human MT1-MMP catalytic domain (human, UniProt P50281 114-287); assay: ITC; MicroCal ITC-200, 25 °C, 10 mM HEPES, 150 mM NaCl, pH 7.4; results and legend: peptides injected into MT1-MMP; methods: MT1-160p (1 mM) in the syringe into binding peptides (0.1 mM) in the cell; one-site binding model
T1 construct: MT1-MMP (MMP14), human, catalytic domain (20 kDa); PDB 1BQQ chain M is the catalytic domain structure used for the docking, not necessarily the same limits; also called Membrane type 1 metalloproteinase; MMP14

MT1-160p = target: T2, MT1-160p (human); assay: atomic force microscopy (single-molecule recognition force spectroscopy); peptide covalently on the AFM tip through NHS-PEG18-aldehyde; MT1-160p immobilised on APTES-treated mica; PBS
T2 construct: peptide of MT1-MMP (MMP14) that holds the MT-Loop (Tyr164-Gln174); source: synthetic peptide, bought: GL Biochem Ltd. (Shanghai)
T2 peptide: REVPYAYIREGHEKQ

[2] = target: T1, recombinant human MT1-MMP catalytic …; assay: atomic force microscopy (single-molecule recognition force spectroscopy); peptide covalently on the AFM tip through NHS-PEG18-aldehyde; MT1-MMP immobilised on APTES-treated mica; PBS; 25 °C; control with free excess peptide (1 mmol/L)

Binder | Ka [1] | dH [1] | stoichiometry N [1] | binding result (MT1-160p) | retraction force (peak position of the histogram) [2]
B1 | 175000 M⁻¹ | -0.29 kcal/mol | 1.14 | binds | 260 pN
B2 | 107000 M⁻¹ | – | – | binds | 150 pN
B3 | – | – | – | binds | 166 pN
